Measurements taken from US9730980B2.

Target: NR1D1 (pCDNA-Nr1d1 expression vector)

- luciferase activity driven by the human G6pase promoter: 14.5%
Substance: r-h-apoA-IV
